Consider 73 sequences from the supplement of paper PMC10567573.

± gives the standard deviation.

The nature of the data set: protein stability index of a GFP-peptide fusion (GPS, HEK-293T) (PSI 1-6); higher = more stable. Particulars: c terminus: a fixed tail appended.
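Further: 24-mer peptide tiles fused after GFP, lentivirally expressed, FACS-sorted into six equal bins by GFP/DsRed ratio, decoded by Illumina sequencing, PSI is the read-weighted mean bin number.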

Regarding LIQQFLTLRPDQQLHIFNTLRSHL [CDS2], the protein stability index is, setting by setting: (treatment: DMSO) 2.37 ± 0.16; (treatment: MLN4924 1 uM, 8 h) 2.34 ± 0.27.
Taken in the same sequence, the figures for GPAASEGAEQPPDLHCVLVTNPHS [GADD45A] were 4.97 ± 0.14 and 4.95 ± 0.1.
For the sequence SAPQQNGQPLRPLVPDASKQRLME [PDLIM7], the protein stability index came out at 4.73 ± 0.34 (treatment: DMSO) and 4.89 ± 0.33 (treatment: MLN4924 1 uM, 8 h).
PGEQGGGKLVLSSLPKRLCLVCGD [ESRRA] showed a protein stability index (treatment: DMSO) of 2.79 ± 0.19 and a protein stability index (treatment: MLN4924 1 uM, 8 h) of 3.25 ± 0.29.
On the same counts, the results for HGHMCIAFELLGKNTFEFLKENNF [CLK3] are 2.55 ± 0.87 and 2.92 ± 1.3.
Taken in the same sequence, the figures for CDFKIDAGDRFLEALGFSWHDTCF [PDLIM7] were 2.6 ± 0.5 and 2.47 ± 0.46.
Taken in the same sequence, the figures for ESITSAGRDDLESFQLEISGFLKE [FAM98B] were 3.9 ± 0.26 and 4.1 ± 0.28.
Take WVRSVSFSHDGLHVASLADDKMVR [WSB1]: the protein stability index turned out to be 2.66 ± 0.4 (treatment: DMSO) and 3.54 ± 0.45 (treatment: MLN4924 1 uM, 8 h).
Taken in the same sequence, the figures for VNDLRGSDSIAYDKGEKLLRCKLA [ADD1] were 3.34 ± 0.21 and 3.48 ± 0.48.
On the same counts, the results for VTVLEDLEKGLEPEPQVPGPAHGP [ZNF232] are 4.99 ± 0.27 and 4.874 ± 0.039.
For the sequence EGQARCLAHLGRHMEALEIAANLE [C8orf76], the protein stability index reads like this: (treatment: DMSO) 3.6 ± 0.42; (treatment: MLN4924 1 uM, 8 h) 3.74 ± 0.39.
On the same counts, the results for TVSTSEVTSQQEPQIPVDRGSETT [TAF7L] are 5.49 ± 0.12 and 5.44 ± 0.16.
The sequence QQSQGWVHYMIHEPEPHILLFRRP [CKS1B] came in with a protein stability index (treatment: DMSO) of 2.11 ± 0.35 and a protein stability index (treatment: MLN4924 1 uM, 8 h) of 1.96 ± 0.22.
On the same counts, the results for HSFVLVTSLGLTYDGMLSDVQSMP [MAGEA10] are 2.83 ± 0.53 and 2.88 ± 0.47.
Regarding FFFDRNPGAFGTILTFLRAGKLRL [KCNG1], the protein stability index by setting is: (treatment: DMSO) 2.48 ± 1.3; (treatment: MLN4924 1 uM, 8 h) 2.07 ± 0.11.
Taken in the same sequence, the figures for APTADDDDDDHDDHEDNDKMNDSE [NOL4L] were 5.53 ± 0.2 and 5.54 ± 0.28.
The sequence LRFCHNNKKAKRYLLHGLECVVAM [EIF5] gave a protein stability index (treatment: DMSO) of 2.14 ± 0.33 and a protein stability index (treatment: MLN4924 1 uM, 8 h) of 2.23 ± 0.6.
As to TFPSGSGAHFPQVPGGAVRVAAAA [PI4K2A], the protein stability index turned out to be 3.81 ± 0.27 (treatment: DMSO) and 3.81 ± 0.32 (treatment: MLN4924 1 uM, 8 h).
Taken in the same sequence, the figures for PISEKAKDLILRFCIDSENRIGNS [STK38L] were 2.04 ± 0.47 and 2.05 ± 0.41.
With HSPSCLARVTGELTMTFPAGIVRV [FCHO1], the protein stability index is, setting by setting: (treatment: DMSO) 2.53 ± 0.44; (treatment: MLN4924 1 uM, 8 h) 2.67 ± 0.76.
Taken in the same sequence, the figures for IKMAMVACGDAFTVAIGAESEVYS [NEK8] were 2.57 ± 0.78 and 2.57 ± 0.5.
TILLSYGVILHSLKTQSLEGKRKA [OR4A15]: the protein stability index is, setting by setting: (treatment: DMSO) 2.5 ± 0.082; (treatment: MLN4924 1 uM, 8 h) 2.41 ± 0.55.
As to CVLADRLDCADALLKAGADVNKTD [INVS], the protein stability index runs as follows: (treatment: DMSO) 4.4 ± 0.48; (treatment: MLN4924 1 uM, 8 h) 4.17 ± 0.42.
Consider NRYGDVPCLDQTRVKLTKRSGHTQ [PTPN9], for which the protein stability index (treatment: DMSO) was 3.96 ± 0.4 and the protein stability index (treatment: MLN4924 1 uM, 8 h) stood at 4.36 ± 0.26.
Consider FLVMKGQEGAASKVLGRLRALSDT [SLC2A12], for which the protein stability index was determined as 2.27 ± 0.45 (treatment: DMSO) and 2.44 ± 0.39 (treatment: MLN4924 1 uM, 8 h).
Taken in the same sequence, the figures for AAGEQLQQQHVSCQVFPERLAQGN [ATP23] were 4.47 ± 0.15 and 4.5 ± 0.28.
On the same counts, the results for NWIELLSGETWNPLKLHYQLRNVR [GOLPH3] are 2.43 ± 0.73 and 2.36 ± 0.61.
Taken in the same sequence, the figures for QVERMREVNSRCYQPEPFACGIEH [FBXO34] were 2.53 ± 0.3 and 2.43 ± 0.34.
Regarding VKKLMRTSTPPPASVINNMLAEIF [ZBED1], the protein stability index was 2.2 ± 0.37 (treatment: DMSO) and 2.02 ± 0.21 (treatment: MLN4924 1 uM, 8 h).
On the same counts, the results for LRSPRKFGVAGRSCQEVLRKGCLR [DFFB] are 2.9 ± 0.19 and 2.74 ± 0.35.
Turning to ILDICEDNVPDPKDVKERFSGSLV [TMEM175], the protein stability index runs as follows: (treatment: DMSO) 3.83 ± 0.19; (treatment: MLN4924 1 uM, 8 h) 4.06 ± 0.13.
Taken in the same sequence, the figures for KKVLNHGYDDDNHDYIVRSGERWL [DYRK1B] were 3.27 ± 0.39 and 3.55 ± 0.49.
Taken in the same sequence, the figures for QQFVIAGVLVEDSNNHHLMLEASE [ZBED1] were 3.5 ± 0.36 and 3.57 ± 0.43.
In the case of PGPASGPGPDTGPDSELSPCIPPG [SPAG8], the protein stability index runs as follows: (treatment: DMSO) 5.4 ± 0.24; (treatment: MLN4924 1 uM, 8 h) 5.36 ± 0.24.
Taken in the same sequence, the figures for LLLGTAYSFYLFHPLAYGMVGPLA [POMT2] were 3.32 ± 0.18 and 3.18 ± 0.59.
KRNKRNPIFQDSQDTEVFSWSDNE [FAM104B]: the protein stability index is, setting by setting: (treatment: DMSO) 4.46 ± 0.21; (treatment: MLN4924 1 uM, 8 h) 4.58 ± 0.22.
For VRYNAEKKKVGNYYTTPIYRFRMK [YJU2B], the protein stability index (treatment: DMSO) was 2.57 ± 0.17 and the protein stability index (treatment: MLN4924 1 uM, 8 h) was 2.86 ± 0.35.
Taken in the same sequence, the figures for LQEPGEPQGPPASPSCPEEALAAT [PXN] were 5.44 ± 0.22 and 5.278 ± 0.023.
On the same counts, the results for GLSPRVIRVWFQNKRCKDKKKSIL [ISL2] are 2.13 ± 0.45 and 2.36 ± 0.085.
On the same counts, the results for QLHPPRWYSRLQACQWGGNFLAFS are 2.11 ± 0.45 and 2.26 ± 0.088.
With PCAAAREGRLERRECGLAAPRFSF [IRX6], the protein stability index came to 3.01 ± 0.21 (treatment: DMSO) and 2.89 ± 0.4 (treatment: MLN4924 1 uM, 8 h).
On the same counts, the results for WGKGARGRLGRRDEDAGLPRPVQL [NEK8] are 3.37 ± 0.23 and 3.48 ± 0.32.
Taken in the same sequence, the figures for QASSERLGLDNRLFGHPGLDMELG [ADAMTSL2] were 3.87 ± 0.12 and 4.02 ± 0.5.
ATQTERRLDLAAVTLRRGLRSRAS [FAM189A2]: the protein stability index by setting is: (treatment: DMSO) 4.02 ± 0.24; (treatment: MLN4924 1 uM, 8 h) 4.41 ± 0.2.
Regarding YMTKPSKSLLPHLKTGNSSPGIGA [RTP4], the protein stability index by setting is: (treatment: DMSO) 3.13 ± 0.13; (treatment: MLN4924 1 uM, 8 h) 3.22 ± 0.27.
As for KSQDLAKIMADIRAQYDELARKNR [KRT18], the protein stability index reads like this: (treatment: DMSO) 3.05 ± 0.41; (treatment: MLN4924 1 uM, 8 h) 3.29 ± 0.65.
On to TFGPIPEFSRATAEKVNQDMCMKV [CRYL1], for which the protein stability index worked out at 3.9 ± 0.25 (treatment: DMSO) and 3.94 ± 0.17 (treatment: MLN4924 1 uM, 8 h).
Taken in the same sequence, the figures for SRPTGQQLESLGLLAPGEQSLPCT [KISS1] were 4.29 ± 0.16 and 4.38 ± 0.25.
Taken in the same sequence, the figures for KGRHHRGRGGEPRAYFMSDTREEK [CHGB] were 4.93 ± 0.12 and 4.95 ± 0.096.
Taken in the same sequence, the figures for GLGYFSCHSHTVVQDYSYFFFLRM [CCDC3] were 2.66 ± 0.71 and 2.3 ± 0.55.
Turning to LPNKQVLGLSKLARIVEIYSRRLQ [GCH1], the protein stability index was 2.31 ± 0.5 (treatment: DMSO) and 2.08 ± 0.53 (treatment: MLN4924 1 uM, 8 h).
Taken in the same sequence, the figures for ARAFAEKNGLSFIETSALDSTNVE [RAB11A] were 4.28 ± 0.41 and 4.24 ± 0.44.
Taken in the same sequence, the figures for WGGQEDREPAGRWKEGRPRVEESG [PBXIP1] were 4.79 ± 0.21 and 5.05 ± 0.099.
Taken in the same sequence, the figures for QQTKLEAEKLKVQALKDRGLSIPR [LSM1] were 4.12 ± 0.16 and 4.21 ± 0.075.
Regarding YARYHQAFADRDQSERQRHESQQL [TEKT4], the protein stability index runs as follows: (treatment: DMSO) 2.83 ± 0.71; (treatment: MLN4924 1 uM, 8 h) 3.66 ± 0.64.
Regarding QHEEICLGLFTLILTEPAQAQKCY [INTS3], the protein stability index reads like this: (treatment: DMSO) 2.24 ± 0.46; (treatment: MLN4924 1 uM, 8 h) 2.32 ± 0.41.
On the same counts, the results for DRDSIWKCLKFLGSRHPTLVLPLV [INTS4] are 2.15 ± 0.24 and 2.15 ± 0.22.
As for LLCGAAFGRLVANVLKSYIGLGHI [CLCN6], the protein stability index was 2.66 ± 0.42 (treatment: DMSO) and 3.14 ± 0.46 (treatment: MLN4924 1 uM, 8 h).
For the sequence EGIRQTEYTLTGLKFDMKYMNFRV [FSD1], the protein stability index is, setting by setting: (treatment: DMSO) 2.67 ± 0.54; (treatment: MLN4924 1 uM, 8 h) 2.56 ± 0.52.
Consider VSGSWERDQQVEAAQRALVEVLGP [RETREG3], for which the protein stability index runs as follows: (treatment: DMSO) 3.9 ± 0.33; (treatment: MLN4924 1 uM, 8 h) 4.08 ± 0.094.
Turning to EPESKNAPHSQGEYDVYSTFQSHE [PPP2R2C], the protein stability index was 5.19 ± 0.15 (treatment: DMSO) and 5.19 ± 0.15 (treatment: MLN4924 1 uM, 8 h).
Take LTQKRSQLVKKLNDSDHQSSTSPL [VPS39]: the protein stability index is 4.8 ± 0.23 (treatment: DMSO) and 4.69 ± 0.29 (treatment: MLN4924 1 uM, 8 h).
TGWFGGGFTSYLGFGDEDTGLELI [MIA2] had a protein stability index (treatment: DMSO) of 2.07 ± 0.35.
As for STSYSPLASLPLKADTKGFCNISL [PLAGL1], the protein stability index reads like this: (treatment: DMSO) 2.38 ± 0.2; (treatment: MLN4924 1 uM, 8 h) 2.27 ± 0.2.
Taken in the same sequence, the figures for KEQRKQMKGRGQLEKPPAPNQAMV [TBC1D10A] were 4.95 ± 0.1 and 5.01 ± 0.34.
Taken in the same sequence, the figures for PAPEAESKQTEKDPGVQELEALID [EFHC1] were 5.51 ± 0.2 and 5.57 ± 0.17.
On the same counts, the results for LLALAGAVQRLEGALWGLQAQAVQ [SCARA5] are 3.33 ± 0.29 and 3.48 ± 0.14.
As for SFFAAQAGARKIYAVEASTMAQHA [CARM1], the protein stability index is, setting by setting: (treatment: DMSO) 2.8 ± 0.45; (treatment: MLN4924 1 uM, 8 h) 2.78 ± 0.69.
PTGRLPALVRWWNGIGAVLDFTHP [MYORG]: the protein stability index (treatment: DMSO) came to 2.15 ± 0.28 and the protein stability index (treatment: MLN4924 1 uM, 8 h) was found to be 2.14 ± 0.033.
As to DAKDELEERLERCMSIVTSMTAGV [INTS3], the protein stability index (treatment: DMSO) was determined as 4.13 ± 0.3 and the protein stability index (treatment: MLN4924 1 uM, 8 h) turned out to be 4.09 ± 0.33.
Taken in the same sequence, the figures for NDALSCEYECRRRMLMKRLDVTVQ [FAM98B] were 2.61 ± 0.24 and 2.78 ± 0.38.
Regarding IRVPSVPPVPCVPSVPCTPAPQVG [KRT36], the protein stability index runs as follows: (treatment: DMSO) 3.45 ± 0.27; (treatment: MLN4924 1 uM, 8 h) 3.57 ± 0.25.
With CDKYPHESQLPEEWENNRESLIVF [CPXM2], the protein stability index (treatment: DMSO) worked out at 3.68 ± 0.11 and the protein stability index (treatment: MLN4924 1 uM, 8 h) was found to be 3.44 ± 0.25.
